Results reported in patent US20190170753A1 (ICAHN SCHOOL OF MEDICINE AT MOUNT SINAI, published 2019).
Where no end group is shown, it is not given here.

Columns and labels:
[1] = target: T1, Mut1T110N biotin labeled HCV core peptide (hepatitis C virus, biotin labeled (position not given)); test: capture EIA; Ab 1.953 ng/mL; bt-peptide 500 ng/mL
T1 peptide: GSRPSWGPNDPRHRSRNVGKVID

[2] = target: T2, Mut6T110S biotin labeled HCV core peptide (hepatitis C virus, biotin labeled (position not given)); test: capture EIA; Ab 1.953 ng/mL; bt-peptide 500 ng/mL
[3] = target: T3, C113WT biotin labeled HCV core peptide (hepatitis C virus, also: biotin labeled, position not given here); test: capture EIA; Ab 1.953 ng/mL; bt-peptide 500 ng/mL
T3 peptide: RGSRPSWGPTD

[4] = target: T4, C113T109N biotin labeled HCV core peptide (hepatitis C virus, also: biotin labeled, position not given here); test: capture EIA; Ab 1.953 ng/mL; bt-peptide 500 ng/mL
T4 construct: also called C113T110N
T4 peptide: RGSRPSWGPND

[5] = target: T5, 92-133 biotin labeled HCV core peptide (hepatitis C virus, UniProt Q9WMX2 92-133, chain 1: biotin label (bt-pep). Its position and any spacer are not visible in the passages shown.); test: capture EIA; Ab 1.953 ng/mL; bt-peptide 500 ng/mL
T5 construct: Only the label 92-133 is printed
T5 peptide: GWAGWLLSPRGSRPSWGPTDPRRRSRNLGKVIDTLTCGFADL
Method: (§1) Assay wells were coated with sheep anti-mouse IgG Fc specific antibody and incubated overnight. The coating solution was then removed; the wells blocked using BSA/tween in PBS and then washed with dH2O. […] Next, biotin labeled peptides (diluted to 500 ng/mL in block) were added, the plates incubated for 10 minutes while shaking at 700 rpm and then washed. Peroxidase conjugated streptavidin (diluted to 200 ng/mL in block) was then added to all assay wells, incubated for 20 minutes while shaking at 700 rpm and then washed. Finally, color was developed using OPD and signal quenched using 1N H₂SO₄. Signal was read at 492 nm.

[6] = target: T6, WT1STHV biotin labeled HCV core peptide (hepatitis C virus, biotin labeled (position not given)); test: capture EIA; Ab 1.953 ng/mL; bt-peptide 500 ng/mL
T6 peptide: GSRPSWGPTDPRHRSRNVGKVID

[7] = target: T1, Mut1T110N biotin labeled HCV core …; test: capture EIA; Ab 3.906 ng/mL; bt-peptide 500 ng/mL
Method: as §1

[8] = target: T2, Mut6T110S biotin labeled HCV core …; test: capture EIA; Ab 3.906 ng/mL; bt-peptide 500 ng/mL
Method: as §1

[9] = target: T3, C113WT biotin labeled HCV core peptide; test: capture EIA; Ab 3.906 ng/mL; bt-peptide 500 ng/mL
Method: as §1

[10] = target: T4, C113T109N biotin labeled HCV core …; test: capture EIA; Ab 3.906 ng/mL; bt-peptide 500 ng/mL
Method: as §1

[11] = target: T5, 92-133 biotin labeled HCV core peptide; test: capture EIA; Ab 3.906 ng/mL; bt-peptide 500 ng/mL
Method: as §1

[12] = target: T6, WT1STHV biotin labeled HCV core peptide; test: capture EIA; Ab 3.906 ng/mL; bt-peptide 500 ng/mL
Method: as §1

[13] = target: T4, C113T109N biotin labeled HCV core …; test: capture EIA; Ab 15.625 ng/mL; bt-peptide 500 ng/mL
Method: as §1

[14] = target: T6, WT1STHV biotin labeled HCV core peptide; test: capture EIA; Ab 15.625 ng/mL; bt-peptide 500 ng/mL
Method: as §1

B1: Neo4 mouse monoclonal antibody (antibody, V domains shown)
VH: QIQLKESGPAVIKPSQSLSLTCIVSGFSITSSVYCWQWIRQPPGKGLEWMGRICYDGSVDYSPSITSRGTISRDTSLNKVFFQLSSVTNEDTAMYYCSRENHIDYYDTTYPSFDVWGAGTTVTVSS
VL: DIVLTQSPASLIVSLGQRATISCRASKSVNEYGYTYMHWYQQKPGLPPKLLIYLASNLDSGVPARFSGSGSGTDFTLNIHPVEEEDAATYYCQHSRELPYTFGGGTKLEIKR
notes: Mouse hybridoma antibody, isotype IgG1, purified with Protein G; also called HCV Neo4
- signal at 492 nm [1]: 0.0728 A492
- signal at 492 nm [2]: 0.0717 A492
- signal at 492 nm [3]: 0.0765 A492
- signal at 492 nm [4]: 0.0853 A492
- signal at 492 nm [5]: 0.129 A492
- signal at 492 nm [6]: 0.409 A492
- signal at 492 nm [7]: 0.0719 A492
- signal at 492 nm [8]: 0.0847 A492
- signal at 492 nm [9]: 0.0694 A492
- signal at 492 nm [10]: 0.0717 A492
- signal at 492 nm [11]: 0.217 A492
- signal at 492 nm [12]: 0.669 A492
- signal at 492 nm [13]: 0.0736 A492
- signal at 492 nm [14]: 1.42 A492
